This assay has as its target T1, mouse CD276-AP fusion protein (mouse, UniProt Q8VE98 29-248).
T1 construct: Coated on the ELISA plate at 2 ug/ml; not shown: AP fusion partner
T1 sequence (looked up): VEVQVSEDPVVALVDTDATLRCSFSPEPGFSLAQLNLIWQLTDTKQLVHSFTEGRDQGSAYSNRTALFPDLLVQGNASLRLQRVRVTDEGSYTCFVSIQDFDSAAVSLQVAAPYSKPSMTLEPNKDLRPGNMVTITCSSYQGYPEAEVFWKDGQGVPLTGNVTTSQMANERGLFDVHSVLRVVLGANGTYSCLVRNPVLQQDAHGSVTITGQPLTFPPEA
Nature of the assay: ELISA, mouse CD276-AP fusion protein coated at 2 ug/ml, serially diluted scFv-Fc culture medium, HRP goat anti-human IgG, OD 450 nm. On the procedure:
50 μl of the diluted mouse or human CD276-AP fusion protein in PBS at 2 μg/ml was coated in a 96-well plate at 4° C. overnight. Transiently expressed scFv-Fc fusion protein in the culture medium was serially diluted and added into the target protein coated wells. After washing, a 1:3000 diluted horseradish peroxidase (HRP) conjugated goat anti-human IgG antibody was added for 1 hr at RT. After washing, 3, 3, 5, 5′-Tetramethylbenzidine (TMB) substrate was added, and the optical density (O.D.) was read at 450 nm.
A general note: ELISA stands for enzyme-linked immunosorbent assay.

B1: Clone CD276.1 (m851) scFv-Fc fusion protein (Fc fusion)
scFv: QVQLQQSGAEVKKPGSSVKVSCKASGGTFSSYAISWVRQAPGQGLEWMGGIIPILGIANYAQKFQGRVTITADESTSTAYMELSSLRSEDTAVYYCARGGAGGSGSYYPLIWGQGTTVTVSSGGGGSGGGGSGGGGSEIVLTQSPATLSLSPGERATLSCGASQSVSSSYLAWYQQKPGQAPRLLIYDASSRATGIPARFSGSGSGTDFTLTISSLEPEDFAVYYCQQRSSWPPTWTFGQGTKLEIKR
notes: also called m851 (CD276.1); not shown: Fc-Avi tag from modified pSecTag vector
As to B1, the binding result is on record as “no binding”.

The record behind these values is patent US20230110875A1 (US Dept. of Health and Human Services, published 2023).
